The values below come from a protein production outcome set (Wang et al. 2014).

The data set in a line: label from the status in PepcDB records.
Regarding “MSEYLPIIIPSVFLVIPSIAILYMEKRFSTAVYTAVIGLLISFLSFTLFFSLGYYNYGVFNNALYLTKFGYFIAISSLIATILVVLGSSNDLKNWETGTSFLSLSLLTNIGVIYLAFAYNVLVIFASWAIASAATYVIAMLKKDYQSVEAGVKYLVMGLLSSSLMIIGLAFFVTAGNTLYLDPVISYQPLIVLSIIFFSIAFLFKIGAFPFQGWLPEVYSLADRFSVGFVSSVGKIVGIEPLLVILYYLIQDNSSSQVIYLTVVILFSIISVLSLIFGNISAFSRKDFAQILAYSSITQVGFMVIGIAMLPVNMNIAISGLMVYLLSYSIAQAGLFVSLSHVEKITGSSYFESFRGMSSGDRVLAFSMTILLLSLLGIPPILGFWAKLFVLESSFSQPWLTIIGFINSAISAGYYIPPIREIFREGQFKKVDSPERDSVIVAAVLSIALGIISPLIFGVLV”, the protein production result was “failed”.
Take “MSEYRTVSAAAMLGTYEDFLELFEKGYEDKESVLKSNILYDVLRNNNDEARYKISMFLINKGADIKSRTKEGTTLFFPLFQGGGNDITGTTELCKIFLEKGADITALYKPYKIVVFKNIFNYFVDENEMIPLYKLIFSQSGLQLLIKDKWGLTALEFVKRCQKPIALKMMEDYIKKYNLKENS”: the protein production entry is “not failed”.
“MSFDISELLTLYDVVTFSFPERYEDLMREIIEKATRLFGVRRLAIVLREGERYKCIERWGFRRDEEVLERIKNGGENSFIYLMRNGEQGLLYIEPPGRISEREKRLYTIFARRIENIIARKQIEEKIKNSEQEKKVILDSIVELLVFQNPDNRILWANRAAAEYAGARSEELAGRFCYEALHHRDEPCEECPVIKALDTGVPQEGIIASLEGRQFFVRGYPVKKENGLIEGIVEVSVDVTERMQAEEAFRTIFNSVHDAIFIHTLDGKIIDVNQTMLRMYVINSKEEAIKLSIIDDYSIPGSTAEQLPLLWQKVISGENLLFEWKARRPVDGSVFDVEVFLKKISLSKKDVILAAVRDITERKREEELLRNLFTHSPIGMYIVSEGKFQLINPQFEILTGYRQDKLIGMESLNLVVPEDRKMVRSNAIKMLKGEAVEPYEFRIVTGQGDIRWMEETVASIWHDGKRVTLGNIIDITQKKKFEQKLAYISLHDQLTALYNRAYFEEELKRLSTSRKYPITIIVADVNGLKLVNDTMGHDKGDELLTACARVLKKAFRSSDVVARVGGDEFVALLPRTDGKTGKSILKRLRLFIDKYNQEHPELPLSVSFGIATADTPEQSLKEIYKKADDLMYQEKLNLGSSARSKIVNALLTALSERDYITEGHARRMQKLCQDLGEKVGLSAQQLANLSLLAQVHDLGKVGIPDRILFKRGPLTEKEWEVMRQHPEKGYRIAMSSPDLAGIADLILKHHEKWDGTGYPLGLKEEEIPIECRILSIVDAFDAMTSGRPYCRTKTIEDALKEIRRCAGTQFDPRLAEAFIEMITSEKFTAGEKEVAT”: the protein production result was “failed”.
Under “MSFFLTTPAAIDLGVNIDHVATLRNARGTAYPDPVRAALAAEDAGADAITLHLREDRRHIVDADVRTLRPRVKTRMNLECAVTPEMLDIACEIRPHDACLVPEKRSELTTEGGLDVVGHFDAVRAACKQLADAGVRVSLFIDPDEAQIRAAHETGAPVIELHTGRYADAHDAAEQQREFERIATGVDAGIALGLKVNAGHGLHYTNVQAIAALPGIAELNIGHAIVAHAVFVGWDNAVREMKAIMVAARVAALHGGR” stands “not failed”; under “MSFGDTLGLGFMTFAFFLGAGNLIFPPFAGMLAGENMLLAMLGFLITAVGLPLVGLIAVAKAQGKVMAMLPVFAATALAIAIYIIIGPAFAAPRTGLVAYEIGAKPFIDNTTATIMLGSLSLNLSQLIYTLGFFIVTMLLALFPGKLLDSVGKVLTPILLLLLVGLALSVLFLPASEVGVAVGDYKNHPLTKGILEGYNTMDTLASLMFGMLIIDLLRKKGIEQPSAQTKYLIRAAFIAAAGLAFVYVSLFFLGATAGDIAAGAKNGGEILTNYVTREFGSLGTVLLSAVVTLACLTTAVGLVSACSEFFNELMPKLSYRFLVVALSAICALIANVGLSQLINISIPVLMAVYPVAIALVAVTFLTEYFPRPQFAHRAALSVALLFGIFDGMKVAAKSLTGEDGRGITEFAQSFIDFVNGMSPTLSILPLYEEGMAWLLPTLVVIVLCLIIRGSGAKTVSAA”, “failed”; under “MSFIRTFYGDIAPEQLGFTYSHEHIVCVPAYWQERDADDLLLDDKEKSQLDVQDFADLGGKTIVDATAVDYGRRVLDVAQISKETGIQIVGTAGFNKSFLWDGKIKPELKPIIGDFETYYEWIENTSIDKLTEFVVNEVENGLEGTPYKAGQVKFGTGYNMITPLEEKTIRAVARAHHETKAPIHSHTEAGTMALEQIEILKQENIPLEYLSIGHMDRNLDPYYHKQVAKTGAFMSFDGIAKIKYAPESARIAAILYLVSEGFEDQILVSGDTARKTYYKHYGHGPGLEYIAKKWVPRFIDEANEKGFDGEKLVKKFFVDNPARCFTFKK”, “failed”.
Consider “MSFKRDRGDYKGRIDWFTIILYLLLVVAGWFAVCGASYDFDISHLFMMGGRPMMQLLWIGLAVVIGFMVLLMETDIFESLAPVFYAAMLGLLALTILIAPDIKGSHSWLVIGPLRLQPAEFAKVTTALFLAWKLNQNDFVLRGMKAYASTFAIILIPVLLILMQNETGSALVYIAFFLALYREGMSGVFIGIAFCAVLFFVTALKLQGDVWWGHTDAAEWSVVSMAFVIGFFLVRIYTKERGRFYVVAAGLTAVTYAVAIVLSYFVSVDFVLVAYGLLAALIVWALSMAIKRYVLSYALIAVFALCSVGYFYSVDYVFNKVMQPHQQMRIRVALGIEDDLRGGGYNVDQSKIAIGSGGFMGKGFLKGTQTKLKYVPEQDTDFIFCTVGEEQGFLGSVLLLIGYATLIIRIVALAERQTKVFSRVYGHSVAAILLFHLSINVGMVIGLVPVIGIPLPFFSYGGSSLWGFTLLIFIFLRLDADRDCR”, for which the protein production entry is given as “failed”.
Under “MSFLCVRTVSRFRSLSRALAPGFLLLHGNAVPKTAVFFRQQSSNTRLFSSYTAPSGVEENNSKSALKNKLPPGKEVSSKDAKEKITTSAIDLALNSVVKVFTVSSKPRLFQPWQITMQSESTGSGFVISGKKILTNAHVVANQTSVKVRKHGSTTKYKAKVQAVGHECDLAILEIDNDKFWEGMNPLELGDIPSMQDTVYVVGYPKGGDTISVSKGVVSRVGPIKYSHSGTELLAIQIDAAINNGNSGGPVIMGNKVAGVAFESLCYSDSIGYIIPTPVIRHFLNAIEESGEDVSFGSINLTYQKMDNDQLRKDFKMSDKMTGILINKINPLSDVHKVLKKDDIILAIDGVPIGNDSSVHFRKKERITFKHLVSMKKPCETALLKVLREGKEYEFNSSLKSVPPLVPKRQYDKSASYYIFGGLVFLPLTKPYIDSSCVSESALGKMPKKAGEQVVIISQILEDDINTGYSIFEDFQVKKVNGVQVHNLKHLYKLVEECCTETVRMDLEKDKVITLDYKSAKKVTSKILKSLKIPSAVSEDLQPKQQNKRSKVPPKSKEH” stands “failed”; under “MSFRAFLPAAMLVTVAGFWLGASTPGVAQYCEGTVHGLSGRYNLATGSGFLAVRTRPNSSSRMIGQLFNGDHVEIFDRRGNWYQVEIGGSTGWANARWLRNDCRY”, “failed”.
On to “MSFSDHFSAVAASYAKARPRYPQRWFRYLARIVPDRQRVWDCATGNGQAAIALAEYFSEVIGSDASAAQVRQARSHPRVQYLVFPAEATPLAPASLDLITVAQAAHWFDLPQFYIEAQRLLRPGGVIALWGYGLGSLNPAIDHVFNHFYRDWLDPYWPPERQWVEQAYEGLSFPFEPLPTPTFSMQCDWTLFDLLAYLRTWSGVQQFQRQRGFDPVWAIAPELQRVWGDPQRYRRITWPLFAKVGRWQPDRVRLEHHHHHH”, for which the protein production entry was “failed”.
For the sequence “MSFSRHIGVTMIDVVDLSRLQFALTAMYHFLFVPLTLGMAFLLAIMESMYVMTNKQIYKDMTKFWGKLFGINFALGVATGLTMEFQFGTNWSYYSHYVGDIFGAPLAIEALVAFFLESTFVGLFFFGWDRLSKRQHLAVTWLVALGSNFSALWILIANGWMQNPVGADFNFETMRMEMVSFSEVVLNPVAQVKFVHTVASGYTCGAMFILGISSYYLLKGRDIAFARRSFAIAASFGIAAILSTIVLGDESGYELGEVQKVKLAAIEAEWHTEPAPAAFTLFGVPNQETMHTDYAIKIPYVMGIIATRSFDEQVTGLRDLRDEHVERIRGGMYAYELLEKLRAGDKSEENMTAFDEVKGDLGYGLLLKRYTDNVVDATEEQIQAAADDSIPTVWPLFWSFRIMVACGFIMLFVFGAAFIQTCRQKIEQKQWILKAALLSIPLPWIAIEAGWFVAEYGRQPWAVGEILPVHVAASALTAGEIWTSLFAILALYTVFLIAEVYLMLKFARKGPSSLKTGRYHFEQNADSVEDKVSRQVEA”, the protein production entry is given as “failed”.
The value for “MSFVPSLPNLGRFWTAANALSLCRLALVVPITVFLWRDGPLGWLLGLVILVILTDWFDGRIARWTHSVSDWGKVIDPVADKFAAIMTVTALTFRPADPHLPLWFFGLVVGRDVAILLGGMAIARRSGQIVMSAWAGKAASLWLALTILSVILRADPPVFRVCLWMATGLFVFSFLLYVVRYLQATRNAEGATPDSVPQGP” was “failed”; that for “MSGARNVEQWQDFIGSCLDFRPADGVFRIARDMFTEPELFDLEMELIFEKNWIYACHESELPNNHDFITMRAGRQPMIITRDGEGRLNALVNACQHRGTTLTRVGKGNQSTFTCPFHAWCYKSDGRLVKVKAPGEYDEGFDKATRGLKKARIESYKGFVFISLDVAADNSLEDFLGDARIFFDMMVAQSPDGELEVLPGKSAYTYDGNWKLQNENGLDGYHVSTVHYNYVATVQHRQQVNADSGAGSSATLDYSKLGAGDASTDDGWFAFENGHSVLFSEMPNPAVRSGYASIMPRLVAEHGQAKAEWMMHRLRNLNIYPSLFFLDQISSQLRIIRPIAWNKTEIISQCIGVKGESDADRENRIRQFEDFFNVSGMGTPDDLVEFREAQRGFQGRLERWSDISRGRQHWVSGPTANSENLGIQPAMTGTEITHEGLYVNQHRNWQKFLLDGLQRRPLKLREV” was “failed”.
Under “MSGEGNLGKDHEEENEAPLPGFRFHPTDEELLGYYLRRKVENKTIKLELIKQIDIYKYDPWDLPRVSSVGEKEWYFFCMRGRKYRNSVRPNRVTGSGFWKATGIDKPVYSNLDCVGLKKSLVYYLGSAGKGTKTDWMMHEFRLPSTTKTDSPAQQAEVWTLCRIFKRVTSQRNPTILPPNRKPVITLTDTCSKTSSLDSDHTSHRTVDSMSHEPPLPQPQNPYWNQHIVGFNQPTYTGNDNNLLMSFWNGNGGDFIGDSASWDELRSVIDGNTKP” stands “failed”.
Under “MSGHDHGDDGVNRRKVLECMTWAGTGVLWTITGGVPRSLGIIDSAQAATAAAPGMTFLQISDSHVGFDKPANPNALGTLEEAINKINAMPAKPSFMIHTGDITHLSKAAEFDNAERIISQTKLDVHYVPGEHDFIDEEVKLYRERYGRGTKGHGWYSFDAGGVHFVGLVNVVDLKAGGLGNLGAEQLAWLEDDLRGKSKSTPVVLFAHIPLWTVYPEWGWGTEDGGRALEYVKGFGSVTVLNGHIHQVMQKVEGNVTFHTARSTAFPQPAPGAAPSPGPMKVEDARLRSMLGVASINFKQNEQRLAIIDTPLQG” stands “failed”.
On to “MSGISSLGGRVGVTILEILIFSAGLLLLIKGSDIFVEAATRIAEAFKVSEFLIALVLASVATTLPEVTVSAISSYRGNSGIAIGNAVGSALANIALILAISAMIMPLNVDKIASENSLIMVGVTFYAWLLMSNGEISRIEGLTLVLIYAAFLYYLYRKHVKLEEVEKKSRCNVTRDVLILFLSGGMVILGAELVVDSAVKIARAIGIPEVVIGVTLVSIGTSLPEFANSLTATLKKIPNVSVGNIIGADILDILMVIGIASMIRPIRVDPSIVKIVMPITLLVMIILTVSLFRNNKIGRKTAVTLLIIYSAFIYLLTQGKVYIPG”, for which the protein production result was “failed”.
